{"source": "the RNAGym collection of RNA variant scans (doi:10.7554/elife.80360)", "parents": {"B1": {"name": "Hairpin Ribozyme (parent)", "chain": "GUCCUCUUUCACGUGCGCGUGAAAGAGAGAAGUGAACCAGAGAAACACACGUUGUGGUAUAUUACCUGGUA"}}}
{"variants_of": "B1", "assay": "self-cleavage, relative activity (ratio to wild type); higher = more cleavage; co-transcriptional"}
{"variant": "GUCCUCUUUCUCGUGCGCGUGAAAGAGAGAAGUGAACCAGAGAAACACACGUUGUGGUAUAUUACCUGGGA", "note": "[A11U U70G]", "self-cleavage": 0.656}
{"variant": "GUCCUCUUUCUCGUGCGCGUGAAAGAGAGAAGUGAACCAGAGAAACACACGUUGUGGUAUAUUACCUGGAA", "note": "[A11U U70A]", "self-cleavage": 0.914}
{"variant": "GUCCUCUUUCUCGUGCGCGUGAAAGAGAGAAGUGAUCCAGAGAAACACACGUUGUGGUAUAUUACCUGGUA", "note": "[A11U A36U]", "self-cleavage": 0.533}
{"variant": "GUCCUCUUUCUCGUGCGCGUGAAAGAGAGAAGUGACCCAGAGAAACACACGUUGUGGUAUAUUACCUGGUA", "note": "[A11U A36C]", "self-cleavage": 0.619}
{"variant": "GUCCUCUUUCUCGUGCGCGUGAAAGAGAGAAGUGAACCAGAGAAACACACGUUGUGGUAUAUUACCUGGUA", "note": "[A11U]", "self-cleavage": 0.831}
{"variant": "GUCCUCUUUCAAGUGCGCGUGUAAGAGAGAAGUGAACCAGAGAAACACACGUUGUGGUAUAUUACCUGGUA", "note": "[C12A A22U]", "self-cleavage": 0.737}
{"variant": "GUCCUCUUUCGCGUGCGCGUGAAAGAGAGAAGUGAACCAGAGAAACACACGUUGUGGUAUAUGACCUGGUA", "note": "[A11G U63G]", "self-cleavage": 0.296}
{"variant": "GUCCUCUUUCGCGUGCGCGUGAAAGAGAGAAGUGAACCAGAGAAACACACGUUGUGGUAUAUCACCUGGUA", "note": "[A11G U63C]", "self-cleavage": 0.204}
{"variant": "GUCCUCUUUCUCGUGCGCGUGAAAGAGCGAAGUGAACCAGAGAAACACACGUUGUGGUAUAUUACCUGGUA", "note": "[A11U A28C]", "self-cleavage": 0.53}
{"variant": "GUCCUCUUUCUCGUGCGCGUGAAUGAGAGAAGUGAACCAGAGAAACACACGUUGUGGUAUAUUACCUGGUA", "note": "[A11U A24U]", "self-cleavage": 0.638}
{"variant": "GUCCUCUUUCAAGUGCGCGUGAAAGAGAGAAGUGAACCAGCGAAACACACGUUGUGGUAUAUUACCUGGUA", "note": "[C12A A41C]", "self-cleavage": 1.05}
{"variant": "GUCCUCUUUCAAGUGCGCGUGAAAGAGAGAAGUGAUCCAGAGAAACACACGUUGUGGUAUAUUACCUGGUA", "note": "[C12A A36U]", "self-cleavage": 0.435}
{"variant": "GUCCUCUUUCAAGUGCGCGUGAAAGAGAGAAGUGGACCAGAGAAACACACGUUGUGGUAUAUUACCUGGUA", "note": "[C12A A35G]", "self-cleavage": 0.914}
{"variant": "GUCCUCUUUCAAGUGCGCGUGAAAGAGAGAAGUGCACCAGAGAAACACACGUUGUGGUAUAUUACCUGGUA", "note": "[C12A A35C]", "self-cleavage": 0.978}
{"variant": "GUCCUCUUUCAAGUGCGCGUGAAAGAGAGCAGUGAACCAGAGAAACACACGUUGUGGUAUAUUACCUGGUA", "note": "[C12A A30C]", "self-cleavage": 0.159}
{"variant": "GUCCUCUUUCUCGUGCGCGUGACAGAGAGAAGUGAACCAGAGAAACACACGUUGUGGUAUAUUACCUGGUA", "note": "[A11U A23C]", "self-cleavage": 0.652}
{"variant": "GUCCUCUUUCUCGUGCGCGUGAGAGAGAGAAGUGAACCAGAGAAACACACGUUGUGGUAUAUUACCUGGUA", "note": "[A11U A23G]", "self-cleavage": 0.402}
{"variant": "GUCCUCUUUCUCGUGCGCGUGAAAGAGAGAAGUGAACAAGAGAAACACACGUUGUGGUAUAUUACCUGGUA", "note": "[A11U C38A]", "self-cleavage": 0.2}
{"variant": "GUCCUCUUUCUCGUGCACGUGAAAGAGAGAAGUGAACCAGAGAAACACACGUUGUGGUAUAUUACCUGGUA", "note": "[A11U G17A]", "self-cleavage": 0.751}
{"variant": "GUCCUCUUUCUCGUGCUCGUGAAAGAGAGAAGUGAACCAGAGAAACACACGUUGUGGUAUAUUACCUGGUA", "note": "[A11U G17U]", "self-cleavage": 0.562}
{"variant": "GUCCUCUUUCGCGUGCGCGUGAAAGAGAGAAGUGAACCAGAGAAACACACGUUGUGGUAUAGUACCUGGUA", "note": "[A11G U62G]", "self-cleavage": 0.332}
{"variant": "GUCCUCUUUCGCGUGCGCGUGAAAGAGAGAAGUGAACCAGAGAAACACACGUUGUGGUAUACUACCUGGUA", "note": "[A11G U62C]", "self-cleavage": 0.146}
{"variant": "GUCCUCUUUCUCGUGCGCGUGAAAGCGAGAAGUGAACCAGAGAAACACACGUUGUGGUAUAUUACCUGGUA", "note": "[A11U A26C]", "self-cleavage": 0.305}
{"variant": "GUCCUCUUUCUCGUGCGCGUGAAAGAGAGAAGUGAACCAGAGAAACACACGUUGUGGUAUAUUACCUAGUA", "note": "[A11U G68A]", "self-cleavage": 0.316}
{"variant": "GUCCUCUUUCUCGUGCGCGUGAAAGAGAGAAGUGAACCAGAGAAACACACGUUGUGGUAUCUUACCUGGUA", "note": "[A11U A61C]", "self-cleavage": 0.137}
{"variant": "GUCCUCUUUCUCGUGCGCGUGAAAGAGAGAAGUGAACCAGAGAAACACACGUUGUGGUACAUUACCUGGUA", "note": "[A11U U60C]", "self-cleavage": 1.18}
{"variant": "GUCCUCUUUCUCGUGCGCGUGAAAGAGAGCAGUGAACCAGAGAAACACACGUUGUGGUAUAUUACCUGGUA", "note": "[A11U A30C]", "self-cleavage": 0.236}
{"variant": "GUCCUCUUUCUCGUGCGCGUGAAAGAGAGAAGUGAACCAGAGAAACACACGUUGUGGUAUAUUACUUGGUA", "note": "[A11U C66U]", "self-cleavage": 0.318}
{"variant": "GUCCUCUUUCUCGUGCGCGUGAAAGAGAGAAGUGAACCAGAGAAACACACGUUGUGGUAUAUUACCAGGUA", "note": "[A11U U67A]", "self-cleavage": 0.117}
{"variant": "GUCCUCUUUCUCGUGCGCGUGAAAGAGAGAAGUGAACCAGAGAAACACACGUUGUGGUAUAUUACCCGGUA", "note": "[A11U U67C]", "self-cleavage": 0.223}
{"variant": "GUCCUCUUUCUCGUGCGCUUGAAAGAGAGAAGUGAACCAGAGAAACACACGUUGUGGUAUAUUACCUGGUA", "note": "[A11U G19U]", "self-cleavage": 0.815}
{"variant": "GUCCUCUUUCUCGUGCGCGUGAAAGAGAGAAGUGAAUCAGAGAAACACACGUUGUGGUAUAUUACCUGGUA", "note": "[A11U C37U]", "self-cleavage": 0.524}
{"variant": "GUCCUCUUUCUCGUGCGCGUGAAAGAGAGAAGUGAAGCAGAGAAACACACGUUGUGGUAUAUUACCUGGUA", "note": "[A11U C37G]", "self-cleavage": 0.369}
{"variant": "GUCCUCUUUCAAGUGCGCGUGAAAGAGAGACGUGAACCAGAGAAACACACGUUGUGGUAUAUUACCUGGUA", "note": "[C12A A31C]", "self-cleavage": 0.117}
{"variant": "GUCCUCUUUCAAGUGCGCGUGAAAGAGAGAGGUGAACCAGAGAAACACACGUUGUGGUAUAUUACCUGGUA", "note": "[C12A A31G]", "self-cleavage": 0.468}
{"variant": "GUCCUCUUUCUCGUGCGCGUGAAAGAGAGAAGUGAACCAGAGAAACACAAGUUGUGGUAUAUUACCUGGUA", "note": "[A11U C50A]", "self-cleavage": 0.153}
{"variant": "GUCCUCUUUCUCGUGCGCGUGAAAGAGAGAAGUGAACCAGAGAAACACACGUUGUGGUAUAUUACCUGCUA", "note": "[A11U G69C]", "self-cleavage": 0.229}
{"variant": "GUCCUCUUUCUCGUGCGCGUGAAAGAGAGAAGUGAACCAGAGAAACACACGUUGUGGUAUAUUACCUGUUA", "note": "[A11U G69U]", "self-cleavage": 0.26}
